Measured values reported in the Immune Epitope Database (IEDB).

Assays:
Experiment in all cases: IEDB peptide-MHC binding, purified MHC/competitive/radioactivity; ≥ and ≤ were set here for values at or beyond the usual limits of such assays
Settings in all cases: source organism: Bordetella pertussis
[1] = target: HLA-B*53:01
[2] = target: HLA-B*57:01
[3] = target: HLA-B*35:01
[4] = target: HLA-A*02:01
[5] = target: HLA-B*44:03

| Sequence | IC50 [1] [µM] | IC50 [2] [µM] | other results |
| --- | --- | --- | --- |
| CPSSLGNGV | 26.4 | – | – |
| DAGHEHDTW | – | 32.9 | – |
| EATEGDATL | 46.1 | – | IC50 [3]: 69.9 µM |
| GVGLASTLW | 12.6 | 18.8 | – |
| KAGKLSATG | – | 45.5 | – |
| KSYTLRYLA | – | 0.263 | – |
| LLHHILPIL | – | – | IC50 [4]: 1470 nM |
| LSSPSAITV | – | ≥ 70.4 | – |
| LTWLAILAV | – | – | IC50 [4]: 4090 nM |
| QADRDFVWY | 27.2 | – | IC50 [5]: 37.7 µM |
| RAGLSPATW | 27.2 | – | – |
| RGFAQRQQL | – | 54.3 | – |
| SVAPNALAW | 0.983 | – | IC50 [3]: 56.3 µM |
| TSPYDGKYW | – | ≥ 70.4 | – |
| YFEPGPTTD | 69.9 | – | – |
| YTLRYLASY | – | 0.00076 | IC50 [3]: 3.52 µM |
